Experimental data as given in patent publication US20200317768A1 (published 2020).

T1: cynomolgus monkey FcγRIIa2 extracellular domain, C-terminal His-tag (cynomolgus monkey)
T1 construct: also called cyno FcγRIIa2; cynoFcgRIIa2
T1 chain: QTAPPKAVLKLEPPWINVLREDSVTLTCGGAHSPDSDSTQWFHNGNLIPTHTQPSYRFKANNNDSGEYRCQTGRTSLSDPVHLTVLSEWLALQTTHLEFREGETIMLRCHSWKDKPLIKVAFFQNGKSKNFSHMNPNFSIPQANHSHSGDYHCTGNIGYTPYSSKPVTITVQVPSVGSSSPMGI

T2: human FcγRIIb extracellular domain, C-terminal His-tag (human, UniProt P31994 43-217)
T2 construct: also called human FcgRIIb; FcgRIIb
T2 sequence: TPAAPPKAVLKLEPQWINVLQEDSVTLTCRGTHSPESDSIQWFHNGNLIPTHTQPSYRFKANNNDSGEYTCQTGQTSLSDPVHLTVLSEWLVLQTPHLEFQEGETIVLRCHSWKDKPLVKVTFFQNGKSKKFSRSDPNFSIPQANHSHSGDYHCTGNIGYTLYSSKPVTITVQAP

T3: human FcγRIIaR extracellular domain, C-terminal His-tag (human, UniProt P12318 34-217)
T3 construct: also called human FcγRIIa (type R); FcgRIIaR
T3 chain: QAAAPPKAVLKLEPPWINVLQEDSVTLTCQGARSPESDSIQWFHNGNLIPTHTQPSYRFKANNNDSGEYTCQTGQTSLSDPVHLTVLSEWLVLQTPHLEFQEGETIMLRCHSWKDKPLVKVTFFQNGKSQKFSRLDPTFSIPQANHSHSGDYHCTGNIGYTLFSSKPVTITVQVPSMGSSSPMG

T4: cynomolgus monkey FcγRIIIaS extracellular domain, C-terminal His-tag (cynomolgus monkey, UniProt Q8SPW2 21-206 at identity 1.00))
T4 construct: also called cyno FcγRIIIaS; cynoFcγRIIIaS
T4 chain: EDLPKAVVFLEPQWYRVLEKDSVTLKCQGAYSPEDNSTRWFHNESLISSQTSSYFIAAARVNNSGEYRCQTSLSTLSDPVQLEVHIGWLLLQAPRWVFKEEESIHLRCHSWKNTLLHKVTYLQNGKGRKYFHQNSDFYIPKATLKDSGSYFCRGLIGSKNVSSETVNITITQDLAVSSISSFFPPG

T5: cynomolgus monkey FcγRIIa1 extracellular domain, C-terminal His-tag (cynomolgus monkey)
T5 construct: also called cyno FcγRIIa1; cynoFcgRIIa1
T5 chain: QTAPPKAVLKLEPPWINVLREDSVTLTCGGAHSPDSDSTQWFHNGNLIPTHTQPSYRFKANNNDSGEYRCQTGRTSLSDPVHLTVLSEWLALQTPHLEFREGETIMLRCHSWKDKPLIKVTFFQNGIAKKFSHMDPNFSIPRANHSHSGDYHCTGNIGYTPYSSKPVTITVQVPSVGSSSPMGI

T6: cynomolgus monkey FcγRIIa3 extracellular domain, C-terminal His-tag (cynomolgus monkey)
T6 construct: also called cyno FcγRIIa3; cynoFcgRIIa3
T6 chain: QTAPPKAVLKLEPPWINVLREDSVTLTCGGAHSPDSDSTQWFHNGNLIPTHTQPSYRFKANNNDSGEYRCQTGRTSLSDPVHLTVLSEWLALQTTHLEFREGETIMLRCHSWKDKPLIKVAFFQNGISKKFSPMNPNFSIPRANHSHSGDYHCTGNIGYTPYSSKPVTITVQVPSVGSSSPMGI

T7: human FcγRIIaH extracellular domain, C-terminal His-tag (human, UniProt P12318 34-217)
T7 construct: also called human FcγRIIa (type H); FcgRIIaH
T7 sequence: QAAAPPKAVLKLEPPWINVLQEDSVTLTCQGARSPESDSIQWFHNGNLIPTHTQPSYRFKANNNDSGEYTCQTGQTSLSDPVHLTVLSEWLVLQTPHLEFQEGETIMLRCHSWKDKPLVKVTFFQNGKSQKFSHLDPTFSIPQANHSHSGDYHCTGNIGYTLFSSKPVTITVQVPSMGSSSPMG

T8: cynomolgus monkey FcγRIIb extracellular domain, C-terminal His-tag (cynomolgus monkey)
T8 construct: also called cyno FcγRIIb; cynoFcγRIIb
T8 chain: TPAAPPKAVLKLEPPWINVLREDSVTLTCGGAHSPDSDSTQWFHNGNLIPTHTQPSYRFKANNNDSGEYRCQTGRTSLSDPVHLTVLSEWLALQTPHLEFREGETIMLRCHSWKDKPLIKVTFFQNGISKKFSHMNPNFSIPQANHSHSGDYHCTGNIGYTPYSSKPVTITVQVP


Assays:
Test in all cases: SPR (Biacore), antibody captured, FcgR analyte
[1] = molecular target: T1, cynomolgus monkey FcγRIIa2 …
Experimental: (§1) The kinetic analysis of interactions between these antibodies and FcγR was carried out using BIACORE® T200 or BIACORE® 4000 (GE Healthcare). HBS-EP+ (GE Healthcare) was used as the running buffer, and the measurement temperature was set to 25° C. A chip produced by immobilizing Protein A. Protein A/G or mouse anti-human IgG kappa light chain (BD Biosciences) onto a Series S Sensor Chip CM4 or CM5 (GE Healthcare) by the amine-coupling method was used. […] After the measurement, the antibody captured on the chip was washed off by allowing reaction with 10 mM glycine-HCl, pH1.5 and 25 mM NaOH so that the chip was regenerated and used repeatedly. The sensorgrams obtained as measurement results were analyzed by the 1:1 Langmuir binding model using the BIACORE® Evaluation Software to calculate the binding rate constant ka (L/mol/s) and dissociation rate constant kd (l/s), and the dissociation constant KD (mol/L) was calculated from these values. […] Regarding such interactions, KD values were calculated using the following 1:1 binding model described in BIACORE® T100 Software Handbook BR1006-48 Edition AE.
(§2) The behavior of interacting molecules according to the 1:1 binding model on BIACORE® can be described by Equation 1: Req=C·R max/(KD+C)+RI, wherein, Req is a plot of steady-state binding levels to analyte concentration. C is concentration, RI is bulk refractive index contribution in the sample, and Rmax is analyte binding capacity of the surface. When this equation is rearranged, KD can be expressed as Equation 2: KD=C·Rmax/(Req−RI)−C. KD can be calculated by substituting the values of Rmax, RI, and C into Equation 1 or Equation 2. From the current measurement conditions, RI=0, C=2 μmol/L can be used.

[2] = molecular target: T2, human FcγRIIb extracellular domain, …
Experimental: as §1, §2

[3] = molecular target: T3, human FcγRIIaR extracellular domain, …
Experimental: as §1, §2

[4] = molecular target: T4, cynomolgus monkey FcγRIIIaS …
Experimental: as §1, §2

[5] = molecular target: T5, cynomolgus monkey FcγRIIa1 …
Experimental: as §1, §2

[6] = molecular target: T6, cynomolgus monkey FcγRIIa3 …
Experimental: as §1, §2

[7] = molecular target: T9, human FcγRIIIaV extracellular domain, C-terminal His-tag (human, UniProt P08637 17-208)
T9 construct: also called human FcgRIIIaV; FcgRIIIaV
T9 sequence (P08637 17-208 F176V): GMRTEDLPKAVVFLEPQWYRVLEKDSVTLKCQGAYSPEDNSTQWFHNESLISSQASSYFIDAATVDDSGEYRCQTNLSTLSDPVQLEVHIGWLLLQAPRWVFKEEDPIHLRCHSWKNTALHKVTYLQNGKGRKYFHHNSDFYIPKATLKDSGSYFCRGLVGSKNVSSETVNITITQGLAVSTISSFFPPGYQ
Experimental: as §1, §2

[8] = molecular target: T7, human FcγRIIaH extracellular domain, …
Experimental: as §1, §2

[9] = molecular target: T8, cynomolgus monkey FcγRIIb extracellular …
Experimental: as §1, §2

Row | Binder | Kd [1] [nM] | Kd [2] [nM] | Kd [3] [nM] | Kd [4] [nM] | Kd [5] [nM] | Kd [6] [nM] | Kd [7] [nM] | Kd [8] [nM] | Kd [9] [nM]
1 | M103205H795-MY207/M103202L889-SK1 (antibody, human IgG1, kappa, Substitutions introduced into M103205H795-SG1; expressed with M103202L889-SK1 as light chain) heavy: not shown light: DIVMTQSPATLSLSPGERATLSCTSSQSVYHANWLSWFQQKPGQPPKLLIYWASTLAYGVPSRFSGSGSGTDFTLTISSLQPEDAATYYCAGGYGGGRYAFGQGTKVEIKRTVAAPSVFIFPPSDEQLKSGTASVVCLLNNFYPREAKVQWKVDNALQSGNSQESVTEQDSKDSTYSLSSTLTLSKADYEKHKVYACEVTHQGLSSPVTKSFNRGEC | 1400 | 1600 | 2800 | 4100 | 1500 | 69000 | 8000 | 13000 | 820
2 | M103205H795-MY208/M103202L889-SK1 (antibody, human IgG1, kappa, Substitutions introduced into M103205H795-SG1; expressed with M103202L889-SK1 as light chain) heavy: QVTLKESGPVLVKPTETLTLTCTVSGIDLSHDDISWVRQAPGKGLEWVGIISYAGSTYYASWAKGRLTISKDTSKNQVVLTMTNMDPVDTATYYCARGVPAYSHGGDLWGQGTLVTVSSASTKGPSVFPLAPSSKSTSGGTAALGCLVKDYFPEPVTVSWNSGALTSGVHTFPAVLQSSGLYSLSSVVTVPSSSLGTQTYICNVNHKPSNTKVDKKVEPKSCDKTHTCPPCPAPELLNGPSVFLFPPKPKDTLMISRTPEVTCVVVDVSDEDPEVKFNWYVDGVEVHNAKTKPREELYNSTYRVVSVLTVLHQDWLNGKEYKCKVSNKALPAPIEKTISKAKGQPREPQVYTLPPSREEMTKNQVSLTCLVKGFYPSDIAVEWESNGQPENNYKTTPPVLDSDGSFFLYSKLTVDKSRWQQGNVFSCSVMHEALHNHYTQKSLSLSP light: DIVMTQSPATLSLSPGERATLSCTSSQSVYHANWLSWFQQKPGQPPKLLIYWASTLAYGVPSRFSGSGSGTDFTLTISSLQPEDAATYYCAGGYGGGRYAFGQGTKVEIKRTVAAPSVFIFPPSDEQLKSGTASVVCLLNNFYPREAKVQWKVDNALQSGNSQESVTEQDSKDSTYSLSSTLTLSKADYEKHKVYACEVTHQGLSSPVTKSFNRGEC | 1500 | 12000 | 21000 | 2800 | 1200 | 5700 | 10000 | 530 | 640

The remaining binders from weak to strong by Kd [1], led by results:

Row | Kd [1] [nM] | Kd [2] [nM] | Kd [3] [nM] | Kd [4] [nM] | Kd [5] [nM] | Kd [6] [nM] | Kd [7] [nM] | Kd [8] [nM] | Kd [9] [nM] | Binder
3 | 840 | 980 | 14 | 2400 | 950 | 23000 | 51000 | 880 | 250 | M103205H795-MY210/M103202L889-SK1 (antibody, human IgG1, kappa, Substitutions introduced into M103205H795-SG1; expressed with M103202L889-SK1 as light chain) heavy: QVTLKESGPVLVKPTETLTLTCTVSGIDLSHDDISWVRQAPGKGLEWVGIISYAGSTYYASWAKGRLTISKDTSKNQVVLTMTNMDPVDTATYYCARGVPAYSHGGDLWGQGTLVTVSSASTKGPSVFPLAPSSKSTSGGTAALGCLVKDYFPEPVTVSWNSGALTSGVHTFPAVLQSSGLYSLSSVVTVPSSSLGTQTYICNVNHKPSNTKVDKKVEPKSCDKTHTCPPCPAPELLNGPSVFLFPPKPKDTLMISRTPEVTCVVVDVSDEDPEVKFNWYVDGVEVHNAKTKPREEQYNSTYRVVSVLTVLHQDWLNGKEYKCKVSNTALPKPIEKTISKAKGQPREPQVYTLPPSREEMTKNQVSLTCLVKGFYPSDIAVEWESNGQPENNYKTTPPVLDSDGSFFLYSKLTVDKSRWQQGNVFSCSVMHEALHNHYTQKSLSLSP light: DIVMTQSPATLSLSPGERATLSCTSSQSVYHANWLSWFQQKPGQPPKLLIYWASTLAYGVPSRFSGSGSGTDFTLTISSLQPEDAATYYCAGGYGGGRYAFGQGTKVEIKRTVAAPSVFIFPPSDEQLKSGTASVVCLLNNFYPREAKVQWKVDNALQSGNSQESVTEQDSKDSTYSLSSTLTLSKADYEKHKVYACEVTHQGLSSPVTKSFNRGEC
4 | 690 | 500 | 680 | 2200 | 830 | 19000 | 14000 | 570 | 190 | M103205H795-MY209/M103202L889-SK1 (antibody, human IgG1, kappa, Substitutions introduced into M103205H795-SG1; expressed with M103202L889-SK1 as light chain) heavy: QVTLKESGPVLVKPTETLTLTCTVSGIDLSHDDISWVRQAPGKGLEWVGIISYAGSTYYASWAKGRLTISKDTSKNQVVLTMTNMDPVDTATYYCARGVPAYSHGGDLWGQGTLVTVSSASTKGPSVFPLAPSSKSTSGGTAALGCLVKDYFPEPVTVSWNSGALTSGVHTFPAVLQSSGLYSLSSVVTVPSSSLGTQTYICNVNHKPSNTKVDKKVEPKSCDKTHTCPPCPAPELLNGPSVFLFPPKPKDTLMISRTPEVTCVVVDVSDEDPEVKFNWYVDGVEVHNAKTKPREELYNSTYRVVSVLTVLHQDWLNGKEYKCKVSNTALPKPIEKTISKAKGQPREPQVYTLPPSREEMTKNQVSLTCLVKGFYPSDIAVEWESNGQPENNYKTTPPVLDSDGSFFLYSKLTVDKSRWQQGNVFSCSVMHEALHNHYTQKSLSLSP light: DIVMTQSPATLSLSPGERATLSCTSSQSVYHANWLSWFQQKPGQPPKLLIYWASTLAYGVPSRFSGSGSGTDFTLTISSLQPEDAATYYCAGGYGGGRYAFGQGTKVEIKRTVAAPSVFIFPPSDEQLKSGTASVVCLLNNFYPREAKVQWKVDNALQSGNSQESVTEQDSKDSTYSLSSTLTLSKADYEKHKVYACEVTHQGLSSPVTKSFNRGEC
